Source: the supplement of paper PMC9170038

Tested on: K4 kissing-loop RNA reporter
Assay: apparent KD of K4 kissing-loop reporter; higher = weaker reporter binding
Details: Eterna round: R107
Method: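 RNA-MaP round R107: designed RNA switches with theophylline, tryptophan, arginine or FMN aptamers are transcribed on-chip within common flanks. They are titrated with a labelled K4 kissing-loop RNA reporter in RNA-MaP buffer (100 mM Tris pH 7.5, 80 mM KCl, 4 mM MgCl2), without ligand or with the indicated ligand. Median apparent KD per design.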

[1] = input ligand: theophylline 20 uM
[2] = input ligand: tryptophan 2.4 mM
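Also: bound reporter read as fluorescence of individual clusters on recovered sequencing chips by microscopy, with normalized cluster intensities fitted with a binding model.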

Row | Sequence | apparent KD of K4 kissing-loop reporter (input ligand: FMN 200 uM) | apparent KD of K4 kissing-loop reporter (input ligand: arginine 13.2 mM) | apparent KD of K4 kissing-loop reporter (input ligand: none) | apparent KD of K4 kissing-loop reporter [1] | apparent KD of K4 kissing-loop reporter [2]
1 | GGCACGGUGACGCGGCUGCCGUGCGCUUGGGAGGAUAUGUUUCGUGACAGAAGGCCCAGUGAUGUUGGGUCUGUUCAAAAGGACU [Edmatianri] | 339 nM | 104 nM | 125 nM | 121 nM | 104 nM
2 | GGCAGUGAUGUUGCCAGUGGCAGAUGCGAAGGAGCGCGGUGAGACGCAGGUAGGUCGCGCAUUGAAAUUGCUGUCACUAAAAUGC [#1] | 261 nM | 274 nM | 290 nM | 320 nM | 238 nM
3 | GGCAGUGAUGUUGCCAGUGGCAGAUUGGAAGGAGCGUGGUGAGACACAGGUAGGUCGCUAAUUGAAGUUGCUGUCACUAAAAUGC [whbob_Ex_Arginine_A_2t131] | 276 nM | 299 nM | 307 nM | 260 nM | 241 nM
4 | GGCAUAGUCUCAACGUGUGGUUGGGUUGGGAAGGAUAUUUGAUCGAAAAGAAGGUCCCGCAUUGAGUGAUGUUCAAGGGCUCCAA [theeternabot_exclusion_KL_FMN_A_26] | 226 nM | 220 nM | 262 nM | 213 nM | 246 nM
5 | GGCGAAUAAAAUCGCCUAGAGAGAAAGGAUACCAGCACCCGGCGGUGCCCUUGGCAGCCUAGCCCAGUGAUGUUGGGUCCUCUAA [Biaveinbe] | 263 nM | 121 nM | 140 nM | 345 nM | 206 nM
6 | GGCUCCUACGGAGGAUAUAGUAGCCCAGAGUGAUGUUCUAGGGUGUUUUCCGAUUUAGUCAUUGUUCUAGAAGGCCGUAGGAGCC | 266 nM | 177 nM | 189 nM | 183 nM | 210 nM
7 | GGCUUAUUCUAUGAUACCAGCGUCACAUCGGGACUGCGCACGCAGCAGGCGAGUGAUGUUCGCCCUUGGCAGCAUCUCGGCGACU [theeternabot_exclusion_KL_Theo_B_26] | 373 nM | 230 nM | 249 nM | 250 nM | 232 nM
8 | GGCUUGCCAGUGAUGUUGGCAUAAACUGAAGGAGCGCGUGAAAACGCAGGUAGGUCGCAGAACCUUGCCAACUAUUUUAUUUGCC [Ex Arginine A K4 24] | 192 nM | 223 nM | 212 nM | 252 nM | 210 nM
9 | GGGAAGAAGGCGGCCGCCACUGCAGAAGAGACAGAGAGGGAAGAAGAGGAGUGAUGUUCCAAGAACAGGACCGGGCCAAGAAGGG [whbob_SS_Tryp_B_t29] | 598 nM | 137 nM | 119 nM | 284 nM | 92.9 nM
10 | GGGAAGGAGUGAUGUUUCUUCUGAAUUUCUAAGGAUAUACGAUGCGGUAGAAGGUAGAUGCCUUGCAGGAAAUGUUCACCACGCG [theeternabot_exclusion_KL_FMN_A_2] | 218 nM | 146 nM | 150 nM | 184 nM | 158 nM
11 | GGGAGUAGUGCGGCCGCCACUGAGAAAGAAGAAGAAUAUAGUGAUGUUAUGUGGGAAAGGAAGAACAGGACCGGGCAUUAGAUUU [#21 K4 Tryptophan B Same State] | 821 nM | 450 nM | 488 nM | 441 nM | 499 nM
12 | GGGAGUAGUGCGGCCGCCACUGAGAAAGAAGAAGAAUGUAGUGAUGUUAUGUAGGAAAGGAAGAACAGGACCGGGCAUUAGAUUU [SSTRyptB.H] | 478 nM | 443 nM | 354 nM | 840 nM | 497 nM
13 | GGGUCAGUCUGAAGGAGCGGCCAGACAGAGCAGUGAUGUUGCUCCUCCGGAAACGGUGUCGGCCAGGUAGGUCGCAGAUUGGCUC [Dienralais mod v1] | 153 nM | 122 nM | 137 nM | 126 nM | 124 nM
14 | GGGUUGAACUGAAGGAGCGAGAAAUAGAAAGUAAGAAGAUAAGCUAGUGAUGUUAGAAAUUCUCAGGUAGGUCGCAGUAAGAAUU [V3] | 338 nM | 325 nM | 354 nM | 280 nM | 258 nM
15 | GGUAGCAUGAUGGAUACCAGUCCAAAUGGAGUGAUGUUCCAACAACAGGUUAGGCUGCUGGACCCUUGGCAGCCGUCAUGCUACC | 141 nM | 120 nM | 160 nM | 121 nM | 133 nM
16 | GGUAGCAUGGCGGCCGCCACUAACAACCUCACCUGCGGCUCGAUCGAGUGAUGUUCGAACGCAAUUAGGACCGGGCCAUGCUACC | 243 nM | 64.8 nM | 141 nM | 143 nM | 122 nM

Row | Sequence | apparent KD of K4 kissing-loop reporter (input ligand: FMN 200 uM) | apparent KD of K4 kissing-loop reporter (input ligand: arginine 13.2 mM) | apparent KD of K4 kissing-loop reporter (input ligand: none) | apparent KD of K4 kissing-loop reporter [1] | apparent KD of K4 kissing-loop reporter [2]
17 | GGUAGCAUGGCGGCCGCCACUCGCAUCACAGGCCAUUAACCGCCCUCGUAAAGUGAUGUUUUACAGAGGACCGGGCCAUGCUACC | 331 nM | 257 nM | 297 nM | 323 nM | 195 nM
18 | GGUAGCAUGGCGGCCGCCACUGAGGCCCUAUACGAGUCCUAAACAACCUAGUGAUGUUAGGAGUCCAGGACCGGGCCAUGCUACC | 271 nM | 175 nM | 254 nM | 262 nM | 440 nM
19 | GGUAGUGCUAGCGAUACCAGUCAUAUCGCUCUGGAGUGAUGUUCCGGAACGUGCGGAGAAGACCCUUGGCAGCGCUUGACGGUGU [Exclusion Theophylline B GF5] | 218 nM | 234 nM | 318 nM | 251 nM | 298 nM
20 | GGUCCGCGGUCGGCCGCCACUGAACAAGACCAGUGAUGUUGGAUCUUCCAGUGCGUUGGCUUUAACAGGACCGGGACCGUGGAGC [Titia] | 139 nM | 132 nM | 145 nM | 140 nM | 164 nM
21 | GGUGACAACCAGAGGUGAUGUAUAGUAUCGCGAGGACCGGUACGGCCGCCACUCGUGAAGAGAAAGGAGUGAUGUUCCGUAAUGG [Kazoo C7] | 287 nM | 276 nM | 272 nM | 390 nM | 138 nM
22 | GGUGUGCCAGUGAUGUUGGCAUAAACUGAAGGAGCGCGUGAAAACGCAGGUAGGUCGCAGAACCUUGCCAACUAUUUUAUUCACC [Ex Arginine A K4 25] | 181 nM | 174 nM | 176 nM | 236 nM | 168 nM
23 | GGUUAGUGAUGUUGAUCAAAUCGCGGUGAUACCAGCAACACAUCGUGCCCUUGGCAGCACGGCAAAAUGAAUGCGGUCGAAUGCG [theeternabot_exclusion_KL_Theo_A_19] | 487 nM | 484 nM | 546 nM | 478 nM | 412 nM
24 | GUACGGCGGGCGGCCGCCACUGGUAUACGAGUGAUGUUCGGAUAUACGUGAUGUAUGGUAAUUAACAGGACCGGGUCAGGGCCGG [whbob_SS_Tryp_B_t23] | 115 nM | 158 nM | 229 nM | 147 nM | 119 nM
25 | GUAGCACUUGACAGUGAUGUUGUCAAGGACAAGGAUAUCAUCUCAAUGAGAAGGUGUCCUUGAUAACAGCUACGGGAAUAUCCCA [Omei KL FMN A Exc D v3] | 312 nM | 108 nM | 136 nM | 120 nM | 123 nM
26 | GUAGCACUUGAUAGUGAUGUUAUCAAGGACAAGGAUAUCAUCUCAAUGAGAAGGUGUCCUUGAUAACAGCUACGGGAAUAUCCCA [Omei KL FMN A Exc D v1] | 103 nM | 267 nM | 288 nM | 280 nM | 312 nM
27 | GUAGGAUGAGGAGGAGGAUGAAUUACUGAAGGAGCGCAUAUAAAUGCAGGUAGGUCGCGGUAAAGAAGUAUAGUGAUGUUAUAUA [SSArgA.G] | 421 nM | 636 nM | 580 nM | 438 nM | 329 nM
28 | GUCAUCAGAUCGCAAGAUCUGAUAGCCGAUACCAGCGCGAAGGUGCGCCCUUGGCAGCGGCACCGAGUGAUGUUCGGUCAGACGG [#2 Same State - Theophylline A Attempt #4 (HarryS)] | 658 nM | 796 nM | 776 nM | 440 nM | 594 nM
29 | GUCCCAGUGAUGUUGGUAGGCGGGCGGGAUACCAGCGGAGACUCACGCCCUUGGCAGCCCACAUAUCCCGCGUAGGGAUUAGCCC [Same State - Theophylline A (Freestyle 23)] | 285 nM | 258 nM | 316 nM | 339 nM | 275 nM
30 | GUCCCGAGUGAUGUUCGGGUCGUUCGGGAAGGAGCGCCCGGAAGGGCAGGUAGGUCGCCCGGAUCCCUCAGGUAACUGAGGGACC [#2 Same State - Arginine A Attempt #25 (HarryS)] | 483 nM | 334 nM | 553 nM | 450 nM | 466 nM
31 | GUCCCGAGUGAUGUUCGGGUCGUUUGGGAAGGAGCGCCCGGAAGGGCAGGUAGGUCGCCCGGACCCUGCAGGUAACUGUUGGGCC [#2 Same State - Arginine A Attempt #19 (HarryS)] | 206 nM | 154 nM | 210 nM | 215 nM | 194 nM
32 | GUCUCAAAAGAGGCAAGCACUAACGAGGACAAGGAUAUCAUCUCAAUGAGAAGGUGUCCUCGUCCUUAGUGAUGUUAAGGAGUGC [Omei KL FMN A SS E v5] | 348 nM | 226 nM | 211 nM | 376 nM | 356 nM
